The labels stand for the following.
T1: Utp9 (S. cerevisiae, UniProt P38882 1-575)
T1 construct: Utp9, S. cerevisiae, subunit of UtpA; No tag is named for it in either strain; strains are in Supplementary Data 1; source: endogenous, S. cerevisiae YSK32, co-purified with Utp10-GFP; overexpressed (galactose promoter) in S. cerevisiae YSK122, co-purified with Utp15-mCherry
T1 sequence (looked up): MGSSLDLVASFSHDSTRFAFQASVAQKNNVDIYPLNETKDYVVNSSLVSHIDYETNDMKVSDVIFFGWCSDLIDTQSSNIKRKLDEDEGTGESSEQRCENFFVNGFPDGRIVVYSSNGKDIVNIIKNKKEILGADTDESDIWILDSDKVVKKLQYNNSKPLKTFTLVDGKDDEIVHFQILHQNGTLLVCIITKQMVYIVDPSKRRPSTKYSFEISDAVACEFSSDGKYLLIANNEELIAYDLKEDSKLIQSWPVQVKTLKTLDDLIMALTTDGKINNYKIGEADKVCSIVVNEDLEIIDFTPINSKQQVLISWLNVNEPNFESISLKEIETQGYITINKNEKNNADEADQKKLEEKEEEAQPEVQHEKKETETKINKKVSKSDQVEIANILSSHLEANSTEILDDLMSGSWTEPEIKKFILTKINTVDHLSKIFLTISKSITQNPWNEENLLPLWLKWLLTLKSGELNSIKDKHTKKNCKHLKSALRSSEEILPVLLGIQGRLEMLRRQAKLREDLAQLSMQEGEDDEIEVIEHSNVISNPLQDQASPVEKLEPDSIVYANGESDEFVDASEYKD

T2: Utp4 (S. cerevisiae, UniProt Q06679 1-776)
T2 construct: Utp4, S. cerevisiae, subunit of UtpA; No tag is named for it in either strain; strains are in Supplementary Data 1; source: endogenous, S. cerevisiae YSK32, co-purified with Utp10-GFP; overexpressed (galactose promoter) in S. cerevisiae YSK122, co-purified with Utp15-mCherry
T2 sequence (looked up): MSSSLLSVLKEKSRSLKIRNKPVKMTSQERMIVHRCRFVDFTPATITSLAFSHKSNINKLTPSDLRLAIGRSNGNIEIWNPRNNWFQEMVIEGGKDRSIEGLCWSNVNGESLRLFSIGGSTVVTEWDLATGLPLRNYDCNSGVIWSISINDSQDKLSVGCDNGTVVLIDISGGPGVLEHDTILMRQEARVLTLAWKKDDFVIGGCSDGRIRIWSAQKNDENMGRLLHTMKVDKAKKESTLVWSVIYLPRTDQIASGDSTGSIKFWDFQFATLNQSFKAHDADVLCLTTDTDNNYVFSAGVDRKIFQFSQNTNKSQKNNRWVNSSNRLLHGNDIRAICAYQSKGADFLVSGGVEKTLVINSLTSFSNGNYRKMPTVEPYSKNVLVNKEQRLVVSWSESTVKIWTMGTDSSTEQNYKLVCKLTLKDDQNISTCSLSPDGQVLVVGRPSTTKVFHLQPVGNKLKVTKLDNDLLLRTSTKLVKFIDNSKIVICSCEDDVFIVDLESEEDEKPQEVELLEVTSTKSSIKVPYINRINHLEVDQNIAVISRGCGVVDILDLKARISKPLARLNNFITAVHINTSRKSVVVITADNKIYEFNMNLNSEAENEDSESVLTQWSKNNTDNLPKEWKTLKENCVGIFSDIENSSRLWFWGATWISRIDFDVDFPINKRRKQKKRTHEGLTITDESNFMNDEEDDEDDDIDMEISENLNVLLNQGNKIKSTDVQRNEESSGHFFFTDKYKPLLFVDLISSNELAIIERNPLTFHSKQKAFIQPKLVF

B1: Utp15-3myc-TEV-mCherry-3FLAG (overexpressed) (natural protein, S. cerevisiae, UniProt Q04305 1-513, looked up)
chain: MSTARPRIITSKAPLLPQQTTPEQRYWRQYTSAQLVKEHNSVTHISFNPQHPHDFAVTSSTRVQIFSSRTRQVIKTFSRFKDVVYSASFRSDGKLLCAGDATGLVSVYDSYNPRTILLSINASTHPTHVTKFHTQDNKILATASDDRVTRLWDISNAYEPQLELTGATDYVRTLSFIPAAPHLVATGSYDGLIRLYDTRSSGSTPIYSLNHDQPVENVIAVSPTQIVSCGGNNFKVWDLTSNKKLYERGNFNKAVTCLDYVENFDSPMQSALIASSLDGHVKVFDPLDNFQVKFGWKFSGPVLSCAVSPSTAQGNRHLVAGLSSGLLAIRTKKKEKRSSDKENAPASFNKNAKSNNFQRMMRGSEYQGDQEHIIHNDKVRSQRRMRAFERNINQFKWSEALDNAFVPGMAKELTLTVLQELRKRGKVRVALYGRDESTLEPLLNWCLKGIEDVRSASIVADWVAVVLELYGNTLESSPVLQELMIDLKTKVRHEIHKSKEAQRIEGMLQLLTS
notes: Utp15, S. cerevisiae, subunit of UtpA; Captured by mCherry in a4; the complex is eluted by TEV cleavage, so mCherry-3FLAG is off in the SEC step (a5); also called Utp15-TEV-mCherry; Utp15-mCherry; source: S. cerevisiae YSK122, overexpressed (galactose promoter); captured from lysate on anti-mCherry nanobody sepharose, TEV elution, SEC; not shown: 3myc, C-terminal, kept; mCherry, C-terminal, kept; …
B2: Utp5 (natural protein, S. cerevisiae, UniProt Q04177 1-643, looked up)
chain: MDSPVLQSAYDPSGQYLCYVTVALDKQRVGVQPTQRATSSGVDTVWNENFLYLEDSKLKVTCLKWVNLASSDTVAIILGMNNGEIWLYSVLANEVTYKFTTGNSYEIKDIDLMGNQLWCIDSSDAFYQFDLLQFKLLQHFRINNCVQLNKLTIVPAGDSVAQLLVASHSISLIDIEEKKVVMTFPGHVSPVSTLQVITNEFFISGAEGDRFLNVYDIHSGMTKCVLVAESDIKELSHSGQADSIAVTTEDGSLEIFVDPLVSSSTKKRGNKSKKSSKKIQIVSKDGRKVPIYNAFINKDLLNVSWLQNATMPYFKNLQWREIPNEYTVEISLNWNNKNKSADRDLHGKDLASATNYVEGNARVTSGDNFKHVDDAIKSWERELTSLEQEQAKPPQANELLTETFGDKLESSTVARISGKKTNLKGSNLKTATTTGTVTVILSQALQSNDHSLLETVLNNRDERVIRDTIFRLKPALAVILLERLAERIARQTHRQGPLNVWVKWCLIIHGGYLVSIPNLMSTLSSLHSTLKRRSDLLPRLLALDARLDCTINKFKTLNYEAGDIHSSEPVVEEDEDDVEYNEELDDAGLIEDGEESYGSEEEEEGDSDNEEEQKHTSSKQDGRLETEQSDGEEEAGYSDVEME
notes: Utp5, S. cerevisiae, subunit of UtpA; No tag is named for it in either strain; strains are in Supplementary Data 1; source: endogenous, S. cerevisiae YSK32, co-purified with Utp10-GFP; overexpressed (galactose promoter) in S. cerevisiae YSK122, co-purified with Utp15-mCherry
B3: Utp8 (natural protein, S. cerevisiae, UniProt P53276 1-713, looked up)
chain: MPSLSQPFRLATLPKIASLSNFSLQADYVQVADGTFNESTNNITLGISGSSISQYIINPTPKLTFDYPIPSTNIITACNAEKGQANIDGNIEASTDDEANNEKTINTQKKRNVEIWAFGLMVNKGNYTLNVITKALEDTTDTSNDHLSESDIDNKAYTGSDEFLSQYKIKAKAKVMSIKIDTKNSLVIAILQNGLIEIFDFKLTLLHSFDISYDNLKYAKWFTENGTEYVFVLCPLQDDKVCYKLLELTDCGSGESSPIKELSSTIIEGFSFENSKLCYQFGKLYKLNQGKIYIYSLPHCQLQQVIEFPMVDKLSPGDDLISFQPVSVNRVLLTVNNVIYLLDLLHCSTLSQRELTHVKTFQLLKSAVINSEKSHNSKTIAIGISTKNGPNPTSSLEIINIDVGTNTLKDSLGKSFQVGNNDSSVILKPLFDDKDINDKRVKCNDVSGDSSVPVLHCNEVIEKLSALQDNDITSFDDIFFKELKIKEEHYTEKDRYISDPGFLNKVLDLIFGKFSGNDYPKTLTFLLTHPLFPLSRTRNLLSLLRDQPRLFKQAIVTCPNLPLNELLEELFSIRNRELLLDISFRILQDFTRDSIKQEMKKLSKLDVQNFIEFITSGGEDSSPECFNPSQSTQLFQLLSLVLDSIGLFSLEGALLENLTLYIDKQVEIAERNTELWNLIDTKGFQHGFASSTFDNGTSQKRALPTYTMEYLDI
notes: Utp8, S. cerevisiae, subunit of UtpA; No tag is named for it in either strain; strains are in Supplementary Data 1; source: endogenous, S. cerevisiae YSK32, co-purified with Utp10-GFP; overexpressed (galactose promoter) in S. cerevisiae YSK122, co-purified with Utp15-mCherry

In the assay “Utp8” the target is B3. The experiment in a line: pull-down; Utp4, Utp5, Utp8, Utp9 and Utp15-3myc-TEV-mCherry-3FLAG overexpressed in yeast YSK122; lysate on anti-mCherry nanobody sepharose; 50 mM HEPES-NaOH pH 7.6, 100 mM NaCl, 4 °C; TEV elution. The note with it: partners not purified.
For the assay “Utp5”, the target named is B2. Described as above. The note with it: partners not purified.
The target in a further assay is T1, Utp9. The assay is described as above. The note with it: partners not purified.
Assay [1] deals with T3, Utp10-3C-GFP (S. cerevisiae, UniProt P42945 1-1769).
T3 construct: Utp10, S. cerevisiae, subunit of UtpA (200 kDa); GFP is joined through a 3C protease site; it holds the protein on the beads in a1-a3 and is cleaved off by 3C on elution, so it is absent in the SEC step and in the DSS cross-linking (a6); also called Utp10-GFP; Utp10-sbp-H14-3C-GFP; source: S. cerevisiae YSK32, C-terminal tag integrated in the genome, endogenous level; captured from lysate on …
T3 sequence (P42945 whole entry): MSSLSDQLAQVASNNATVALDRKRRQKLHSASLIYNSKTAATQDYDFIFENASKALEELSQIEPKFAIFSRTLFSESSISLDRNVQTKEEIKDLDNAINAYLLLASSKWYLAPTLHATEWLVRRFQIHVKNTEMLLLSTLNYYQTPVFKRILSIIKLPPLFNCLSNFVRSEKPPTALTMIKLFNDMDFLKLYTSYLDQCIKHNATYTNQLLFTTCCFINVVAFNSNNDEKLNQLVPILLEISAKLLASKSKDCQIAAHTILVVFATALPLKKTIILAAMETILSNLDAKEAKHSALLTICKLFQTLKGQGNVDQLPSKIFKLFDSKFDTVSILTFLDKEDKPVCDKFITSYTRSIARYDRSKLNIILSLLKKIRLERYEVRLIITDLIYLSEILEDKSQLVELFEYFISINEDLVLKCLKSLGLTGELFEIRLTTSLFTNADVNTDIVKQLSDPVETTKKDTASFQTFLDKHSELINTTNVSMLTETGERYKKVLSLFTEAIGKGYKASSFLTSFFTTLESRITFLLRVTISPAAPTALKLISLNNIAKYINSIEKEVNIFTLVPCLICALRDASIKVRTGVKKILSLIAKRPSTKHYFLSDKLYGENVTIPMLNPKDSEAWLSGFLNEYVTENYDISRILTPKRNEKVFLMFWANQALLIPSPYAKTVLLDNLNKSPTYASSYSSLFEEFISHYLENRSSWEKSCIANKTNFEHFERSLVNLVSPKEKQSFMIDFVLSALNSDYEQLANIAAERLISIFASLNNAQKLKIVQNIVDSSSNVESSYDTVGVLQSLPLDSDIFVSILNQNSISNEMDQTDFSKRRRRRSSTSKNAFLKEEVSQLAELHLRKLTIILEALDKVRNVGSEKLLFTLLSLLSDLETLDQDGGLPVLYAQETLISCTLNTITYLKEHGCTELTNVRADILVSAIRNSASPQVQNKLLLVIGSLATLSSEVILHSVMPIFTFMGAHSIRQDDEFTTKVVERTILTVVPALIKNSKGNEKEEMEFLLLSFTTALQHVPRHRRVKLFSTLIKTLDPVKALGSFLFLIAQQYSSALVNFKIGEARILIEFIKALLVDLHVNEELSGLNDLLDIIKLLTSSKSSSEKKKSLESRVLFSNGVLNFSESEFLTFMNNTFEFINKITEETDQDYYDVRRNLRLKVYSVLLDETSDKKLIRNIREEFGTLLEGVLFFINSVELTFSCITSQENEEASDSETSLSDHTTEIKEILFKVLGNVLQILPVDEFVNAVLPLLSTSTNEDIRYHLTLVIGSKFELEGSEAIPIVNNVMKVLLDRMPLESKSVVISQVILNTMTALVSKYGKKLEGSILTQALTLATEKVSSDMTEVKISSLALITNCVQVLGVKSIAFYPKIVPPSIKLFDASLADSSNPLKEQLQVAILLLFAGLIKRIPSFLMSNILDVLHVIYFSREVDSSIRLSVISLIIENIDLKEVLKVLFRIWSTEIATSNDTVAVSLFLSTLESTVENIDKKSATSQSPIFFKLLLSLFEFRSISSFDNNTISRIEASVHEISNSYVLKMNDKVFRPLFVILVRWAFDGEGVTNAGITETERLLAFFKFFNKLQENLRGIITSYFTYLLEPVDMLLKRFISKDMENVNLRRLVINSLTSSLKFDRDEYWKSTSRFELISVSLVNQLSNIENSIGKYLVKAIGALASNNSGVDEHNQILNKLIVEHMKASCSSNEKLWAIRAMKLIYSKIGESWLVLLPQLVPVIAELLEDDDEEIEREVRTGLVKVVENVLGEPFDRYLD
As to the kind of experiment: pull-down + SEC; endogenous UtpA from YSK32 lysate captured via Utp10-GFP on anti-GFP nanobody sepharose; 50 mM HEPES-NaOH pH 7.6, 200 mM NaCl, 1 mM EDTA, 4 °C; eluted with TEV and 3C protease; Superose 6; peak fraction on Coomassie-stained SDS-PAGE. The note with it: partners not purified.

Assay [2] concerns the target T3, Utp10-3C-GFP. As to the kind of experiment: cross-linking; DSS (0.2 mM, H12/D12) cross-linking of SEC-purified endogenous UtpA, 25 °C, 30 min, 50 mM HEPES-NaOH pH 7.6, 200 mM NaCl, 1 mM EDTA; cross-linked peptides found by mass spectrometry (pLink). The settings on record: both partners purified.
The next assay has as its target T2, Utp4. Described as above. The note with it: both partners purified.

Take B1: the binding result in the assay with Utp8, in the assay with Utp5 and in the assay with Utp9 was “binds” each time.
As for B2, in the assay with Utp10-3C-GFP [1], the binding result is given as “binds”.
For B3, the binding result with Utp10-3C-GFP [2] and in the assay with Utp4 was “binds” in each case.
